Positions of bridges follow the written chain, without caps; N, C: chain ends. No end group written: not given here. *: point of attachment. Pent4ynoyl = C#CCCC(=O)*

The target in test [1] is T1, ferritin (FTH) (Homo sapiens, UniProt P02794).
T1 construct: made in house; host or cells: Escherichia coli BL21 (DE3), plasmid pET20-FTH
The test is described as follows: Search for peptides capable of being encapsulated into ferritin by disassembly/reassembly process, LC-MS detection. Details: key to encapsulation: “A” represents peptides with three times of confirmation of encapsulation.; “B” represents peptides with two times of confirmation of encapsulation or less.; “C” represents peptides without confirmation of encapsulation. To be noted: for MS peak of peptide derived from peptide encapsulating ferritin: FTH, disassembly/reassembly process performed; for encapsulation: encapsulation into ferritin (FTH), three trials. On the procedure: Peptides capable of being encapsulated into ferritin by disassembly/reassembly process were searched. In the disassembly/reassembly process, 1 mL of a 50 mM glycine hydrochloride buffer (pH 2.3) containing FTH at a final concentration of 5 mg/mL and the peptide at a final concentration of 0.5 mM, was left to stand at room temperature for 15 minutes. Next, 310 μL of a 1 M Tris hydrochloride buffer (pH 9.0) was added for neutralization, and left to stand at room temperature for 3 hours. After the standing, 1.2 mL of a 50 mM Tris hydrochloride buffer (pH 8.0) was added, and centrifuged (at 15,000 rpm for one minute). Thereafter, 2.5 mL of its supernatant was injected into a desalting column PD-10 (Sephadex G-25 filled product, GE Healthcare Inc.) equilibrated with a 50 mM Tris hydrochloride buffer (pH 8) for the elusion with 3.0 mL of a 50 mM Tris hydrochloride buffer (pH 8.0) to separate non-encapsulated peptides and ferritin. A whole amount (3.0 mL) of the resulting solution was concentrated to 0.1 mL by centrifugal ultrafiltration using Vivaspin 20-100K (GE Healthcare Inc.). The operation of adding 10 mL of a 50 mM Tris hydrochloride buffer to the concentrated solution and then concentrating was repeated twice to remove peptides that were not removed by PD-10 to obtain 0.1 mL of a sample solution. For the LC-MS analysis, 50 p1 of a 1 M glycine hydrochloride buffer (pH 2.3) was added to 50 μL of the sample solution and then the resulting solution was left to stand at room temperature for 15 minutes. To the solution, 900 μL of ethanol was added. Next, the resulting solution was stirred vigorously and then centrifuged (at 15,000 rpm for five minutes) for collection of the supernatant. The supernatant was analyzed using LCMS-2020 (Shimadzu Corporation) as LC-MS, Inertsil (Registered trademark) as a column, ODS-3, particle diameter of 2 μm and 2.1 mm×50 mm (GL science). Thereafter, 10 μL of the sample injected into the column was eluded at a flow rate of 0.2 mL/min for 10 minutes such that a mixing ratio of a solution A (0.1% formic acid/99.9% acetonitrile) and a solution B (50% water/50% acetonitrile) is from 95:5 to 95:5.
The encapsulation of the peptide into ferritin was studied by comparing in terms of the amount of the peptide detected by LC/MS between the sample prepared by encapsulating the peptide into ferritin at the disassembly/reassembly process and the sample prepared simply by mixing ferritin with the peptide. For example, ClAc-FHC was eluted at a retention time of 0.8 minute. […] However, the peak was not observed for the sample prepared by simply mixing the peptide with ferritin without performing the disassembly/reassembly process (FIG. 12B). FIG. 13 to FIG. 17 illustrate LC-MS results for FTH in which the peptide was encapsulated at the disassembly/reassembly process.

Test [2] concerns the target T1, ferritin (FTH). The test can be described thus: Encapsulation of fluorescent dye-modified peptide into FTH, column chromatography with absorbance at 480 nm and LC-MS. The note with it: absorbance at 480 nm at elution position of 24-mer FTH; LC-MS. On the procedure: Of a 50 mM glycine hydrochloride buffer (pH 2.3) that contains FTH (chemical formula weight: 509,421) at a final concentration of 5 mg/mL and the peptide at a final concentration of 0.5 mM, 0.5 mL was left to stand at room temperature for 15 minutes. Next, 50 μL of a 1 M Tris hydrochloride buffer (pH 9.0) was added for neutralization, and the resulting solution was left to stand at room temperature for 3 hours. After the standing, the resulting solution was centrifuged (at 15,000 rpm for one minute). Then, the supernatant was collected and the volume was increased up to 3 mL with a 10 mM Tris hydrochloride buffer (pH 8). The resulting solution was injected into the HiPrep 26/60 Sephacryl S-300 HR column (GE Healthcare Inc.) equilibrated with a 10 mM Tris-HCl buffer (pH 8.0) to separate and purify 24-mer FTH by size at a flow rate of 1.3 mL/minute. The purified ferritin was analyzed using a HiPrep 16/60 Sephacryl S-300 HR column (GE Healthcare Inc.) equilibrated with a 10 mM Tris-HCl buffer (pH 8.0) at a flow rate of 0.5 mL/minute and confirmed as the absorbance at 480 nm unobservable from FTH only, at the same position as that of a peak of FTH.
The solution containing the FTH was concentrated to 0.25 mL by centrifugal ultrafiltration using Vivaspin 20-100K (GE Healthcare Inc.). […] For the LC-MS analysis, 50 μL of a 1 M glycine hydrochloride buffer (pH 2.3) was added to 50 μL of the sample solution and then the resulting solution was left to stand at room temperature for 15 minutes. To the solution 900 μL of ethanol was added. Next, the resulting solution was stirred vigorously and then centrifuged (at 15,000 rpm for five minutes) to collect its supernatant. The supernatant was analyzed using LCMS-2020 (Shimadzu Corporation) as LC-MS, inertsil (Registered trademark) ODS-3 with a particle diameter of 2 μm and 2.1 mm×50 mm (GL science) as a column. Into the column, 10 μL of the sample was injected, and eluded at a flow rate of 0.2 mL/min for 10 minutes such that a mixing ratio of a solution A (0.1% formic acid/99.9% acetonitrile) and a solution B (50% water/50% acetonitrile) was from 95:5 to 95:5. The concentration of the contained protein was determined using a protein assay CBB solution (Nacalai Tesque, Inc.) in terms of bovine albumin as a standard. The concentration of the encapsulated peptide was determined based on the absorbance at 480 nm of the fluorescent dye FAM to which PKC-F is modified.
First, the construction of FTH encapsulating two kinds of fluorescent dye-modified peptides [5(6)—FAM-[…] (SEQ ID NO: 10), FAM-SV40, chemical formula weight 1,516, and 5(6)—FAM-[…] […] (SEQ ID NO: 11), FAN-Np, chemical formula weight 384] was attempted. 0.5 mL of a 50 mM glycine hydrochloride buffer (pH 2.3) that contains FTH (chemical formula weight 509,421) at a final concentration of 5 mg/mL and a peptide at a final concentration of 0.5 mM, was left to stand at room temperature for 15 minutes. Next, 50 μL of a 1 M Tris hydrochloride buffer (pH 9.0) was added for neutralization, and the resulting solution was left to stand at room temperature for 3 hours. […] The absorbance at […] was confirmed at the same elusion position as that of ferritin 24-mer, for ferritin that was used for the operation to encapsulate FAM-SV40 therein. […] Next, the peptide amount of FAM-SV40 encapsulated in purified ferritin was quantified based on the 480 nm absorbance and by CBB staining with use of ferritin-amount-albumin as a standard.

T1 sequence (P02794 whole entry): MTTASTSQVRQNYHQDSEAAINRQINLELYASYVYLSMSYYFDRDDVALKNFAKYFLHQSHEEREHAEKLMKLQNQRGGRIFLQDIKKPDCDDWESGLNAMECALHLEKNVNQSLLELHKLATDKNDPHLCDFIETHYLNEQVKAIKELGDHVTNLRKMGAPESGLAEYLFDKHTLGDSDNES

Turning to EEEEEEEEEE (SEQ ID NO: 16) [Ex10], in the test with ferritin (FTH) [1], the “MS peak of peptide derived from peptide encapsulating ferritin” value (“MS peak of peptide derived” below) is recorded as “presence” and the encapsulation result is given as “A (“A” represents peptides with three times of confirmation of encapsulation.)”.

Turning to “cyclo(PPYVPLII) (SEQ ID NO: 15) (cyclic; Synthetic amino acid sequence of the peptide Hymenistatin I which is to be tested for encapsulation with ferritin) [cyclic peptide purchased from Sigma-Aldrich, reference compound]”, in the test with ferritin (FTH) [1], the “MS peak of peptide derived” value is reported as “presence” and the encapsulation entry was “B (“B” represents peptides with two times of confirmation of encapsulation or less.)”.

In the case of “VLWLKNR (SEQ ID NO: 14) (Synthetic amino acid sequence of the peptide FGF3-FP16 which is to be tested for encapsulation with ferritin) [linear peptide]”, in the test with ferritin (FTH) [1], the “MS peak of peptide derived” value is reported as “presence” and the encapsulation result is listed as “B (“B” represents peptides with two times of confirmation of encapsulation or less.)”. “cyclo(RGDFV) (SEQ ID NO: 13) [cyloRGDfV, reference compound]”: in the test with ferritin (FTH) [1], the “MS peak of peptide derived” value was “presence” and the encapsulation result is on record as “B (“B” represents peptides with two times of confirmation of encapsulation or less.)”. As for RRRRRRRRRR (SEQ ID NO: 17) [Rx10], in the test with ferritin (FTH) [1], the encapsulation result was “C”. For HTSD (SEQ ID NO: 12) [EGFR], on ferritin (FTH) [1], the “MS peak of peptide derived” value was “presence” and the encapsulation entry is recorded as “A (“A” represents peptides with three times of confirmation of encapsulation.)”. As to “5(6)-FAM-CGGKRPAAIK KAGQAKKKKG (SEQ ID NO: 11) ({5(6)‑FAM}-CGGKRPAAIKKAGQAKKKKG) [FAM-Np, fluorescent dye-modified peptide, linear]”, in the test with ferritin (FTH) [2], the “encapsulation of peptide in FTH” value is reported as “not encapsulated”. Besides, in the test with ferritin (FTH) [1], the encapsulation result is “C”. With “QMARIPKRLARHQMAR (SEQ ID NO: 21) (Synthetic amino acid sequence of the peptide NS which is to be tested for encapsulation with ferritin) [linear peptide]”, in the test with ferritin (FTH) [1], the “MS peak of peptide derived” value is “presence” and the encapsulation result was “A (“A” represents peptides with three times of confirmation of encapsulation.)”.

For “GGKRPARGGKRPAR (SEQ ID NO: 19) (Synthetic amino acid sequence of the peptide NRP-1-2 which is to be tested for encapsulation with ferritin) [linear peptide]”, in the test with ferritin (FTH) [1], the “MS peak of peptide derived” value is on record as “presence” and the encapsulation entry is listed as “A (“A” represents peptides with three times of confirmation of encapsulation.)”. As to “FBP0032: cyclic peptide with disulfide bond, X is 4-pentynoic acid (Pent4ynoyl-GQKGCKKTPKLASLSCTGF; disulfide 5-16 (inferred))”, in the test with ferritin (FTH) [1], the “MS peak of peptide derived” value is recorded as “presence” and the encapsulation entry is reported as “A (“A” represents peptides with three times of confirmation of encapsulation.)”. With “Pakti-L1: cyclic peptide, cysteine sulfur bonded to acetyl group at N-terminus ({CH2CO}-YILVRNRLLRVDCG; thioether N-13)”, in the test with ferritin (FTH) [1], the “MS peak of peptide derived” value is recorded as “presence” and the encapsulation result was “B (“B” represents peptides with two times of confirmation of encapsulation or less.)”.

Consider “GIRLRGGIRLRGGIRLRG (SEQ ID NO: 22) (Synthetic amino acid sequence of the peptide GRP78-3 which is to be tested for encapsulation with ferritin) [linear peptide]”, for which, in the test with ferritin (FTH) [1], the “MS peak of peptide derived” value is on record as “presence” and the encapsulation entry was “B (“B” represents peptides with two times of confirmation of encapsulation or less.)”. Take “FBP0033: cyclic peptide with disulfide bond, X is 4-pentynoic acid (Pent4ynoyl-GRPGCGPRKPRTPKKCGSH; disulfide 5-16 (inferred))”: in the test with ferritin (FTH) [1], the “MS peak of peptide derived” value is reported as “presence” and the encapsulation result is given as “A (“A” represents peptides with three times of confirmation of encapsulation.)”. The matching figures for “SPRGDLAVLGHKY (SEQ ID NO: 18) (Synthetic amino acid sequence of the peptide avb6 which is to be tested for encapsulation with ferritin) [ανβ6, linear peptide]”: “presence” and “B (“B” represents peptides with two times of confirmation of encapsulation or less.)”. The matching figures for “cyclo (AS (D-Pro) PTWI (Dab) (Orn) (D-Dab)(Dab)W(Dab)(Dab)) [Murepavadin, reference compound]”: “presence” and “A (“A” represents peptides with three times of confirmation of encapsulation.)”.
